In data set [1] the test system is male and female rat (Sprague-Dawley). Put plainly: Acute toxicity on single administration, male and female rat (Sprague-Dawley). Particulars: for Mortality after 7 days: 1000 mg/kg single dose, 10 rats per dose; for LD50: single administration, 7 days. It counts as in vivo. How it is done: (a) Toxicity on single administration.
The experiment was conducted on rats and mice (male and female) by oral and intraperitoneal administration of conalbumen dissolved in double-distilledsterile water. The animals were kept under control for 7 days following the administration.
Acute toxicity of the product after a single admini-
stration to the male and female rat (Sprague-Dawley).

In data set [2] the test system is children affected by acute initial gastroenteropathy. Put plainly: Clinical efficacy test in 32 children with acute initial gastroenteropathy vs chemiantibiotic group. It counts as in vivo. The procedure: The tests were conducted on a group of 32 children (14 males, 18 females) of an age group comprised between 2 months and 2 years, affected by acute initial gastroenteropathy.
The test group comprised forms of substantial gravity (15.6% of the total cases), forms of intermediate gravity (43.7%), and finally forms of least gravity (40.6%), determined by known clinical diagnostic methods.
In all cases, in addition to the oral or parental rehydration (in 21.8% of the cases there was actually performed a parental rehydration with glucosaline and polyelectric solutions) and to the usual dietetic treatment, there was performed symptomatic therapy with anticholinergic agents.
The product was administered orally to all the test subjects at a dosage of 300 mg. per day, divided into three equal doses.
The duration of the therapy varied from a minimum of 5 days to a maximum of 10 days.
It was thought opportune, on a clinical plane, to evaluate the test results according to the following parameters:
(1) average time of normalization of the abdomen.
(2) number and percentage of the cases with regularization of the abdomen within the first 48 hours (see Table II and figure 1).
(3) average duration of the time of therapy.
There was further compared the test subjects with a group of subjects of similar age and equally affected by acute initial gastroenteropathy which had received, in addition to the usual symptomatic and dietetic therapy, a chemiantibiotic treatment.
It is important to note that this second group presented a clinical physionomy similar to that of the test group (and therefore with a percentage division equal between forms of different gravity) and further belonging chronologically to the same epidemiological period.

For data set [3], the system named is germs which are pathogenic to man. Put plainly: Treatment of experimental infections in laboratory animals. Particulars: laboratory animals injected with germs pathogenic to man. The data set is classed as in vivo.
Data set [4] in a line: Storage stability of the liophylized product. It counts as physicochemical.
In another data set the test system is experimental animals. The data set is described as follows: Tolerability in experimental animals at therapeutically active doses. The data set is classed as in vivo.
Where [5] appears, read: 32 cases per group, product oral 300 mg per day in three doses.
The mark [6] stands for this setting: percentage distribution, drawing.
Setting [7] is: product vs chemiantibiotics group.

Results on one molecule are retold here after patent publication US4029771A, “Composition for the treatment of bacterial-intestinal infections” (priority 1975, dated 1977).

B1: conalbumen: transferrin (ovotransferrin or conalbumen) extracted in a pure state from egg white (protein, UniProt P02789 20-705, looked up)
Ovotransferrin: APPKSVIRWCTISSPEEKKCNNLRDLTQQERISLTCVQKATYLDCIKAIANNEADAISLDGGQAFEAGLAPYKLKPIAAEVYEHTEGSTTSYYAVAVVKKGTEFTVNDLQGKTSCHTGLGRSAGWNIPIGTLLHRGAIEWEGIESGSVEQAVAKFFSASCVPGATIEQKLCRQCKGDPKTKCARNAPYSGYSGAFHCLKDGKGDVAFVKHTTVNENAPDQKDEYELLCLDGSRQPVDNYKTCNWARVAAHAVVARDDNKVEDIWSFLSKAQSDFGVDTKSDFHLFGPPGKKDPVLKDLLFKDSAIMLKRVPSLMDSQLYLGFEYYSAIQSMRKDQLTPSPRENRIQWCAVGKDEKSKCDRWSVVSNGDVECTVVDETKDCIIKIMKGEADAVALDGGLVYTAGVCGLVPVMAERYDDESQCSKTDERPASYFAVAVARKDSNVNWNNLKGKKSCHTAVGRTAGWVIPMGLIHNRTGTCNFDEYFSEGCAPGSPPNSRLCQLCQGSGGIPPEKCVASSHEKYFGYTGALRCLVEKGDVAFIQHSTVEENTGGKNKADWAKNLQMDDFELLCTDGRRANVMDYRECNLAEVPTHAVVVRPEKANKIRDLLERQEKRFGVNGSEKSKFMMFESQNKDLLFKDLTKCLFKVREGTTYKEFLGDKFYTVISSLKTCNPSDILQMCSFLEGK
B1: in data set [1] (female 90-105 g, oral), the “Mortality after 7 days” value is recorded as 0/10 and the LD50 is on record as above 1000 mg/kg. Besides, in data set [1] (female 100-110 g, i.p.), the “Mortality after 7 days” value is 0/10 and the LD50 was above 1000 mg/kg. Also, in data set [1] (male 100-120 g, i.p.), the “Mortality after 7 days” value is 0/10 and the LD50 is given as above 1000 mg/kg. For the same molecule, in data set [1] (male 100-130 g, oral), the “Mortality after 7 days” value is given as 0/10 and the LD50 was above 1000 mg/kg. Besides, in data set [2] (setting [5]), the “Average time of Therapy” value is reported as 6,1 days and the “Percentage normalization within 48 hours” value is 53,1 Percentage. The “Average time of normalization of the abdomen” value in data set [2] (32 cases per group, product oral 300 mg per day in three doses, p <0,40) is recorded as 2,56. Also, the “No. of cases with normalization within 48 hours” value in data set [2] (of 32 cases per group, product oral 300 mg per day in three doses) amounted to 17. Also, the Clinical results in data set [2] (overall) is on record as “very favorable”. Besides, in data set [2] (overall comparison), the “Clinical results with respect to the group treated with chemiantibiotics” value is recorded as “definitely better”. Moreover, in data set [2] (setting [6]), the “Distribution in the time of normalization of the abdomen, days with most cases” value was “between the second and third day”; the “Peak in the time of normalization of the abdomen” value is “second day”. Moreover, in data set [2] (setting [7]), the “Average time of normalization of the abdomen, comparison with chemiantibiotics” value is given as “slightly lower”; the “Number of cases and percentage of normalization of the abdomen within the first 48 hours, comparison with chemiantibiotics” value is listed as “higher”. Also, the “Efficacy in experimental infections” value in data set [3] is reported as “surprising efficacy”. The “Maintains its properties unchanged” value in data set [4] (liophylized, kept at ambient or lower temperature) was “at least 6 months”. Moreover, the “Period for which the product can be kept” value in data set [4] (vials containing 100 mg. or more, liophylized form) was “indefinite periods”. Moreover, the “Toxic manifestation or significant side effects” value in the data set on experimental animals is recorded as “does not result in toxic manifestation or in significant side effects”.
